According to patent US20200317768A1 (published 2020):

T1: human FcγRIIaH extracellular domain with C-terminal His-tag (human, UniProt P12318 34-217)
T1 construct: Expressed in FreeStyle 293 cells and purified; also called human FcγRIIa (type H); FcgRIIaH; not shown: C-terminal His-tag
T1 sequence: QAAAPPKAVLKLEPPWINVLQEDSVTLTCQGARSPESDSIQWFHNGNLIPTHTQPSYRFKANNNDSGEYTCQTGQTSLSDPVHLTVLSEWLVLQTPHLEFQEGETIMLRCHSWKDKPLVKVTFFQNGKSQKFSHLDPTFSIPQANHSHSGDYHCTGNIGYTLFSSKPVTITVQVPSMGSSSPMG

T2: human FcγRIIaR extracellular domain with C-terminal His-tag (human, UniProt P12318 34-217)
T2 construct: Expressed in FreeStyle 293 cells and purified; also called human FcγRIIa (type R); FcgRIIaR; not shown: C-terminal His-tag
T2 chain: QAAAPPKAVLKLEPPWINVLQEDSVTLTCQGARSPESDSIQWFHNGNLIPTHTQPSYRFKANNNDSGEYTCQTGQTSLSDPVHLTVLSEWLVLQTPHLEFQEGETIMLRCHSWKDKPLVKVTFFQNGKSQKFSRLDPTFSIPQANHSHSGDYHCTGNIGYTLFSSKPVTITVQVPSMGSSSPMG

T3: cynomolgus monkey FcγRIIa1 extracellular domain with C-terminal His-tag (cynomolgus monkey)
T3 construct: Expressed in FreeStyle 293 cells and purified; also called cyno FcγRIIa1; cynoFcgRIIa1; not shown: C-terminal His-tag
T3 chain: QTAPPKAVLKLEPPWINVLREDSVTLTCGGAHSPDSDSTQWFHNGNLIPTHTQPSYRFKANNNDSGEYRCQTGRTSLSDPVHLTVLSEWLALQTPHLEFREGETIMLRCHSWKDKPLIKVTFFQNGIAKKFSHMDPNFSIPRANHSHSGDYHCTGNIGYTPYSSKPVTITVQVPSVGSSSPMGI

T4: cynomolgus monkey FcγRIIa2 extracellular domain with C-terminal His-tag (cynomolgus monkey)
T4 construct: Expressed in FreeStyle 293 cells and purified; also called cyno FcγRIIa2; cynoFcgRIIa2; not shown: C-terminal His-tag
T4 chain: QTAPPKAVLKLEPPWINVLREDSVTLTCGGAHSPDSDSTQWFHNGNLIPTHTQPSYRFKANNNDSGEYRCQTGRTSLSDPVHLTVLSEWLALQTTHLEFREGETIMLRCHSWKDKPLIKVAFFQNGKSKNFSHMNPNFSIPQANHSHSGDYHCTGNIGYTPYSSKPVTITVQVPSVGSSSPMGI

T5: cynomolgus monkey FcγRIIIaS extracellular domain with C-terminal His-tag (cynomolgus monkey, UniProt Q8SPW2 21-206 at identity 1.00))
T5 construct: Expressed in FreeStyle 293 cells and purified; also called cyno FcγRIIIaS; cynoFcγRIIIaS; not shown: C-terminal His-tag
T5 chain: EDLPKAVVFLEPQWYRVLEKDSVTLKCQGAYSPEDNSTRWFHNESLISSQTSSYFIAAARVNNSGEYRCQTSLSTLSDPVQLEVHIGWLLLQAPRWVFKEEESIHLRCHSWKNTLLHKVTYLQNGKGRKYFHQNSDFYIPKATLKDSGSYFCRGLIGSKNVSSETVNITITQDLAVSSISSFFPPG

T6: human FcγRIIb extracellular domain with C-terminal His-tag (human, UniProt P31994 43-217)
T6 construct: Expressed in FreeStyle 293 cells and purified; also called humanFcgRIIb; not shown: C-terminal His-tag
T6 sequence: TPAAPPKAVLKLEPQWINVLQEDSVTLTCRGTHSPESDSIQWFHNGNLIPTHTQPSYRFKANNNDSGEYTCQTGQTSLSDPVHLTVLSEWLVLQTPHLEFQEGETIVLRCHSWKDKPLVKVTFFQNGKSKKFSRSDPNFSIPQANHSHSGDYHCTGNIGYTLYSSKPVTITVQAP

T7: cynomolgus monkey FcγRIIa3 extracellular domain with C-terminal His-tag (cynomolgus monkey)
T7 construct: Expressed in FreeStyle 293 cells and purified; also called cyno FcγRIIa3; cynoFcgRIIa3; not shown: C-terminal His-tag
T7 chain: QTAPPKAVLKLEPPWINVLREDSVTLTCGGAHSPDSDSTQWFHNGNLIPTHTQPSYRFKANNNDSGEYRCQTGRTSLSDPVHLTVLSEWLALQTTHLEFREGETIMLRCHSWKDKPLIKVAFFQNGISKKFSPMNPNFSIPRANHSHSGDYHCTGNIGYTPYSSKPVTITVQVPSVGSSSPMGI

T8: human FcγRIIaR extracellular domain, C-terminal His-tag (human, UniProt P12318 34-217)
T8 construct: also called human FcγRIIa (type R); FcgRIIaR; not shown: His-tag added to the C-terminus
T8 chain: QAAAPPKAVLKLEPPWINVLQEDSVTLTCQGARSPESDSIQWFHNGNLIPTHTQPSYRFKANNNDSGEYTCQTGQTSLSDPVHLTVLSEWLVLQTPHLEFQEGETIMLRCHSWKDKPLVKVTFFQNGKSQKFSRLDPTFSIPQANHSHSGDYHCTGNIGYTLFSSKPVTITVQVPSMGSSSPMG

T9: human FcγRIIaH extracellular domain, C-terminal His-tag (human, UniProt P12318 34-217)
T9 construct: also called human FcγRIIa (type H); FcgRIIaH; not shown: His-tag added to the C-terminus
T9 sequence: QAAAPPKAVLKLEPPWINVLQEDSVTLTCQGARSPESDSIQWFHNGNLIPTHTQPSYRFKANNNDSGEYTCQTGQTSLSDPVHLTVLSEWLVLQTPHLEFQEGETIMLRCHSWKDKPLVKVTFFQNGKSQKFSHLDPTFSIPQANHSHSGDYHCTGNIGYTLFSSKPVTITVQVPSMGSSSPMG

T10: human FcγRIIb extracellular domain, C-terminal His-tag (human, UniProt P31994 43-217)
T10 construct: also called FcgRIIb; not shown: His-tag added to the C-terminus
T10 sequence: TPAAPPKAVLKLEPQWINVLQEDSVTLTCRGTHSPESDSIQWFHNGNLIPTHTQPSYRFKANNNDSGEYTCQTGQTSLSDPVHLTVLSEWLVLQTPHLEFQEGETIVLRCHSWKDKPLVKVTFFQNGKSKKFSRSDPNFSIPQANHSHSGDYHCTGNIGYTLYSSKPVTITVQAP


Experiments:
[1] = target: T1, human FcγRIIaH extracellular domain …; experiment: SPR (Biacore); KD of SG1 divided by KD of the variant for this FcgR;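 also: relative to parent M103205H795-SG1 carrying the SG1 human heavy chain constant region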
Method: (§1) Regarding such interactions, KD values were calculated using the following 1:1 binding model described in BIACORE® T100 Software Handbook BR1006-48 Edition AE.
(§2) The behavior of interacting molecules according to the 1:1 binding model on BIACORE® can be described by Equation 1: Req=C·R max/(KD+C)+RI, wherein, Req is a plot of steady-state binding levels to analyte concentration. C is concentration, RI is bulk refractive index contribution in the sample, and Rmax is analyte binding capacity of the surface. When this equation is rearranged, KD can be expressed as Equation 2: KD=C·Rmax/(Req−RI)−C. KD can be calculated by substituting the values of Rmax, RI, and C into Equation 1 or Equation 2. From the current measurement conditions, RI=0, C=2 μmol/L can be used.
(§3) The variants were expressed using M103202L889-SK1 as the light chain and their affinity was analyzed.

[2] = target: T2, human FcγRIIaR extracellular domain …; experiment: as above
Method: as §1, §2, §3

[3] = target: T3, cynomolgus monkey FcγRIIa1 …; experiment: as above
Method: as §1, §2, §3

[4] = target: T11, human FcγRIIIaV extracellular domain with C-terminal His-tag (human, UniProt P08637 17-208); experiment: as above
T11 construct: Expressed in FreeStyle 293 cells and purified; also called FcgRIIIaV; not shown: C-terminal His-tag
Method: as §1, §2, §3

[5] = target: T4, cynomolgus monkey FcγRIIa2 …; experiment: as above
Method: as §1, §2, §3

[6] = target: T5, cynomolgus monkey FcγRIIIaS …; experiment: as above
Method: as §1, §2, §3

[7] = target: T6, human FcγRIIb extracellular domain with …; experiment: as above
Method: as §1, §2, §3

[8] = target: T7, cynomolgus monkey FcγRIIa3 …; experiment: as above
Method: as §1, §2, §3

[9] = target: T8, human FcγRIIaR extracellular domain, …; experiment: SPR; KD of SG1 divided by KD of variant;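 also: relative to parent M103205H795-SG1 carrying the SG1 human heavy chain constant region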
[10] = target: T9, human FcγRIIaH extracellular domain, …; experiment: SPR; KD of SG1 divided by KD of variant;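 also: relative to parent M103205H795-SG1 carrying the SG1 human heavy chain constant region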
[11] = target: T12, human FcγRIIIaV extracellular domain, C-terminal His-tag (human, UniProt P08637 17-208); experiment: SPR; KD of SG1 divided by KD of variant;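 also: relative to parent M103205H795-SG1 carrying the SG1 human heavy chain constant region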
T12 construct: also called FcgRIIIaV; not shown: His-tag added to the C-terminus

[12] = target: T10, human FcγRIIb extracellular domain, …; experiment: SPR; KD of SG1 divided by KD of variant
[13] = target: T8, human FcγRIIaR extracellular domain, …; experiment: SPR (BIACORE), antibody captured, soluble FcgR as analyte, 25C
[14] = target: T9, human FcγRIIaH extracellular domain, …; experiment: as above
[15] = target: T12, human FcγRIIIaV extracellular domain, …; experiment: as above
[16] = target: T10, human FcγRIIb extracellular domain, …; experiment: as above

T12 sequence (P08637 17-208 F176V): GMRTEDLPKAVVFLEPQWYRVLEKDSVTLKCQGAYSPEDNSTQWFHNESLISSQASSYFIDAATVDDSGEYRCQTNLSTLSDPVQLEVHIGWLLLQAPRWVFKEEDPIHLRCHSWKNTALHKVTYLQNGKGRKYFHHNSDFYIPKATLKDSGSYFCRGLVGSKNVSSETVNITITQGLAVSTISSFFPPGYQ
T11 sequence (P08637 17-208 F176V): as above

KD fold (SG1 = 1) [1] [fold]	KD fold (SG1 = 1) [2] [fold]	KD fold (SG1 = 1) [3] [fold]	KD fold (SG1 = 1) [4] [fold]	KD fold (SG1 = 1) [5] [fold]	KD fold (SG1 = 1) [6] [fold]	KD fold (SG1 = 1) [7] [fold]	KD fold (SG1 = 1) [8] [fold]	KD fold (SG1 = 1) [9] [fold]	KD fold (SG1 = 1) [10] [fold]	KD fold (SG1 = 1) [11] [fold]	KD fold (SG1 = 1) [12] [fold]	Kd [13] [µM]	Kd [14] [µM]	Kd [15] [µM]	Kd [16] [µM]	Binder
1.2	1.3	5.1	0.06	7.4	0.16	9.2	5.9	–	–	–	–	–	–	–	–	M103205H795-MY209 / M103202L889-SK1 (antibody, human IgG1, kappa, Fc variant of M103205H795-SG1, expressed with M103202L889-SK1 as light chain) heavy: QVTLKESGPVLVKPTETLTLTCTVSGIDLSHDDISWVRQAPGKGLEWVGIISYAGSTYYASWAKGRLTISKDTSKNQVVLTMTNMDPVDTATYYCARGVPAYSHGGDLWGQGTLVTVSSASTKGPSVFPLAPSSKSTSGGTAALGCLVKDYFPEPVTVSWNSGALTSGVHTFPAVLQSSGLYSLSSVVTVPSSSLGTQTYICNVNHKPSNTKVDKKVEPKSCDKTHTCPPCPAPELLNGPSVFLFPPKPKDTLMISRTPEVTCVVVDVSDEDPEVKFNWYVDGVEVHNAKTKPREELYNSTYRVVSVLTVLHQDWLNGKEYKCKVSNTALPKPIEKTISKAKGQPREPQVYTLPPSREEMTKNQVSLTCLVKGFYPSDIAVEWESNGQPENNYKTTPPVLDSDGSFFLYSKLTVDKSRWQQGNVFSCSVMHEALHNHYTQKSLSLSP light: DIVMTQSPATLSLSPGERATLSCTSSQSVYHANWLSWFQQKPGQPPKLLIYWASTLAYGVPSRFSGSGSGTDFTLTISSLQPEDAATYYCAGGYGGGRYAFGQGTKVEIKRTVAAPSVFIFPPSDEQLKSGTASVVCLLNNFYPREAKVQWKVDNALQSGNSQESVTEQDSKDSTYSLSSTLTLSKADYEKHKVYACEVTHQGLSSPVTKSFNRGEC
–	–	–	–	–	–	–	–	0.12	0.03	0.004	13.5	9	25	180	0.43	MS103240H795-TT35/M103202L1045-SK1 (antibody, human IgG1, kappa, CH = SG1 with L234Y/P238D/T250V/V264I/S267A/T307P/Q311R/A330K/D413K (EU numbering)) heavy: QVQLVESGGGLVQPGGSLRLSCAVSGIDLSHDDISWVRQAPGKGLEWVSIISYAGSTYYASWAKGRLTISKDTSKNQVVLTMTNMDPVDTATYYCARGVPAYSHGGDLWGQGTLVTVSSASTKGPSVFPLAPSSKSTSGGTAALGCLVKDYFPEPVTVSWNSGALTSGVHTFPAVLQSSGLYSLSSVVTVPSSSLGTQTYICNVNHKPSNTKVDKKVEPKSCDKTHTCPPCPAPEYLGGDSVFLFPPKPKDVLMISRTPEVTCVVIDVAHEDPEVKFNWYVDGVEVHNAKTKPREEQYNSTYRVVSVLPVLHRDWLNGKEYKCKVSNKALPKPIEKTISKAKGQPREPQVYTLPPSREEMTKNQVSLTCLVKGFYPSDIAVEWESNGQPENNYKTTPPVLDSDGSFFLYSKLTVKKSRWQQGNVFSCSVMHEALHNHYTQKSLSLSP light: DIVMTQSPATLSLSPGERATLSCTTSQSVYHENWLSWFQQKPGQPPKLLIYWASTLAYGVPSRFSGSGSGTDFTLTISSLQPEDAATYYCAGGYGGGRYAFGQGTKVEIKRTVAAPSVFIFPPSDEQLKSGTASVVCLLNNFYPREAKVQWKVDNALQSGNSQESVTEQDSKDSTYSLSSTLTLSKADYEKHKVYACEVTHQGLSSPVTKSFNRGEC
